Target: recombinant 50 kD C-terminal BoNT/A domain (HC50A) (Clostridium botulinum, UniProt P0DPI0 871-1296)
Sequence (P0DPI0 871-1296 limits assumed): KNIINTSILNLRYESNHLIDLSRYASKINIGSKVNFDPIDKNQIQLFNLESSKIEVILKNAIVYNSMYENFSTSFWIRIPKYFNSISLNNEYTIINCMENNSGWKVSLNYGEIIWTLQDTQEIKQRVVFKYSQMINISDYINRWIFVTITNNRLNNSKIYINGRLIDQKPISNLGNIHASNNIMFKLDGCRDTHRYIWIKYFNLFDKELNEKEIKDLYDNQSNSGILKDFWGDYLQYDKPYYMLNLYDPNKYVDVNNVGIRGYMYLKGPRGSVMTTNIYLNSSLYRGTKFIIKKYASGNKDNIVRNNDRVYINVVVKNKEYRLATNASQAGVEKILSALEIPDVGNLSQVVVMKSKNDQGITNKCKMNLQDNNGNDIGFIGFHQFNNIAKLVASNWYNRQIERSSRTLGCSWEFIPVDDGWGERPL

B1: 6A antibody (human monoclonal IgG secreted by hybridoma 6A, ATCC accession no. PTA-8870) (antibody, V domains shown)
VH: EVQLVESGGGVVKPGGSLRLSCTAFGFTFEDFGMHWVRQAPGKGLEWVSLVSGEGGSKYYADSVKGRFTISRDNKKHSLYLHMNSLKTEDTALYYCAKDVWTYHYDSSGYQYYYGMDVWGQGTTVTVSS
VL: QEPAVSVALGQTVRITCQGDSLRSYSASWYQQRPGQAPLFVMYGKDKRPSGIPDRFSGSASGNTASLTITGAQAEDEADYYCNCRDSSNQYWIFGGGTKVTVL
B1 gave a Kd of 6.9 pM and a kon of 440000 M⁻¹ s⁻¹.

— US20110002937A1 (THOMAS JEFFERSON UNIVERSITY, published 2011)
